Source: the domain aggregation screens of Martell et al. (2025)

Assay: soluble fraction after stress (log2 fold change); higher = more stays soluble; pooled small domains, quantitative proteomics
Details: stress: 75 degC
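Note: 20 min heating vs room temperature control held 20 min.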

Sequence | soluble fraction (log2)
HMHMELHEKIRLARELNKWSQEEVAEKLEMSPSGYAKIERGETALNIPRLEQIAEIFNIDIWELVKA | -1.04
HMHMHTADDFKQLAKHTSNGRLRTRYLALYHFKKGETRTQIAAYLGVARGSVNTWVSNYLAYGLEGLQS | -2.53
HMHMIDDYLARIGQLIRDARQHRGWTQVQLAEALGTSQSAVNRIERGNQNISLEMIARIGEALGSEIVSLG | -2.24
HMHMKTIEWDSLVLIMYKDMKYLKRINEGQSFHGKGGMLNYADLIGKTYGIRFGQYEIFEPSLEDIVMYG | -0.0889
HMHMSKKLADSISALRKKNGLSQEQLAEKIGISRQTVSNWERGIATPDVETLNLISKLFDEDLSVMING | -0.073
HMHNISQTGRRIAGMTQERWAEALDISVESVRLYESGRGMPSDDVATRMVEVSGAPVLGYWH | -0.458
HMHNPSYDMSKDVDILVMKFRDYNNLTDDEARFLLDKAKDAYYNTGKEILSDNEYDTLEKSLGQE | -0.000671
HMHPEPDPVLFIDGKEYPYDKLSELDETRVQSMTILPKKSAVKKYGDKYANRSIMEITLKKEN | 0.119
HMHPNPLTEQEIAVLKGIAQGLSNQEIADQLYLSNGTVRNYVTNILSKLDAGNRTEAANIAKESGW | 0.00139
HMHPSNQELTKVLAQGSELVLAQKYIEASQIFTRVIEIDQTWAEAWNKRATVFYLLQNYEASQKDIDEV | 0.0525
HMHQKELLNLSYKEAKRYILDDFERVFFTNLLRKTGGNVSRAAQLAQVHRKNLYVKLTELGIDPRQFG | -1.53
HMHQLQLDSRSRLHMTGVIEVESFDEATIVLTTTRGTLIVRGENLHLQLLRLDGGEVLVDGTVDSLSYE | -2.67
HMHQPPDLDDFEAFVGRVKPALLQALVATYGPVDGREATVDALSWAWEHWDRLADVDHPVGYLYRV | -0.0172
HMHRFAVLDTVREVAAGGVAATLSIGVGRDADSFDALFKNASMALEMALSRGGDQAVVKDRMNFQFYGG | 0.153
HMHRGEIVDGVIASVNPRSILIDIGGKSDALVHPRELERMSDEDLRSLKPGQDVSVYVIETDSDGTMLVSL | 0.0809
HMHSEISGGSKDPFRFMPHLGVEDIHAETDRLSGSGVEFIREPDQESWGGWVATFKDPDGNILQLLQL | 0.197
HMHSQVFTDPDKAKNAVVKLGAPLVVKADGLALGKGVIIAQNPQAAKEAVASVGSSGISSISVT | 0.126
HMHTDDDGITEAFPHLRLLSLGEDILDLLEKSRFIRKLNNELVYYVVDFREQNSIDGRRYHPSIYHNL | -0.437
HMHTGEVVNGKVIDVKEDQIILNVGFKSDGIITRSEYSNDNSLDLRTVVNVGDDMEAKVLKINDGEGQVLL | -0.242
HMHTGLAELTDRERDVLRLIATGMTNAAIGSALAYSPSTIRADTVSIYRKLEVRGRAEAAAVAVAAGLTQP | -1.72
HMHTPSGALLSAIEKEWGSFDNFKKEFTTAATSLFGSGWVWLAKDKKGKLYILSENNAGNPITKGYTPILG | -0.359
HMHVLNEEYYNRIKAIQFTMNHDDGNSLNDIEKSDIILLGVSRTSKTPTSIYLANRGLRTSNIPLINEK | -0.655
HMHVSLADQAYKTIRTNILNLTYPPGTQLTEAKLASDLNMSRSPVRTAIKMLQADGLLVSDYYKSMTVK | -1.21
HMHVYSYPAAVKIKNAVGREMMVTLLGRSGTHVQFARQDGEEFVYPISSLDLAAQTLISKYPNDGIKN | -0.895
HMIAALEGKQAMVLDQVSLHHGQVKLGGEVWTARPLNDQDVYEPGDRVTVMRIDGATAVVWRN | -0.472

Sequence | soluble fraction (log2)
HMIAASPVGGIDRVLELLDARGQRVAWIEASGTEGGQRLRLGWIDAQGAERHGAWVPWSADDLLLYA | -0.739
HMIAASQVLRDARQRSRLTQAELGRRADVPQSVISAYESARREPSVDMLARLVAAAGFDLRIGLTP | -0.755
HMIADPLVINKLMDSMALAINDYNPDSVEPVLDELRQYFSENQLRELSKAMDDFDFDEALNALTLLRT | -0.185
HMIALKNLREEKRMTQAELSKDLEISPSAIGMYEQGRRVPDVSTLKKISAYFNVSIDYLLGNSTSKDI | -0.626
HMIALLRLGTAPDIKAQAPLATILARHNGEMSAKDLWQRFGGEIDTFYAQLKTEVAHGWILEPT | -2.34
HMIAVLKQGVSKQQVENLITWFRSRGLDVHISEGKFQTIIGLIGDTSKVDIDLLNGLEIIESVKRI | -0.344
HMIAVSQEQIKQIIVDDPSFHDANGKFSQALLTQYLNQRRMSEDQFVEEIRDQFLFQNLQNLVQNG | 0.278
HMIDAAHLEKAILSLPEGARAVFVLIETEGFAHREVAELLGISEGTSKSQLNYAKKRLREILV | -0.266
HMIDAKTTLQELTQKSGKKPEYRLIKIEGPDHLRRFTVEVFIDGQSMGTGTGHSKKEAEQNAANFALKNLQ | -0.00455
HMIDEQDLKKYILISTSVEELTDYLGATDRMLYDYLYSLKHVGQYWQLNERFLLDLYKLPNLVIVDKEDLE | -0.172
HMIDFDEQGNLWVHEMGPRHGDELNLIEKARNYGYPTVSQGDHYSGVKISNHEDIPIFKSPEKAWVPAISP | -0.228
HMIDFDHADIERLWNSIIHYVPERQKLDFAIDFIKSLEDIGVEHDVLRGSAELDPKLEEAVNTVFE | -0.725
HMIDIIEYIISEESKGLRADQGIALQNPQYSRSLIQKWIKKGSVLVNNKIIRTKEILLEGDKISITPEENI | -0.546
HMIDKIRYPELIMKLAHQQGGTIKRRDVEQLLHLQTKQAYRELSKLVDAGELVSVGRGPGAHYEVS | -0.316
HMIDQNEDLLSGYIDEVLSQNPDKVNEYLKGKSGLIGFFMGQIKQKSATALDAALLKSQLETALEKLRIK | -0.14
HMIDQSVVVQYLSKLTNTPYLKTREITMGEPYMQFERGEIKFQEYVEDIRALLPGGDRIDADRLRDIWMNS | -1.1
HMIDRADLWEALRKLPEDTLKLFSLHFEKGMTHDEISKHTDIPVGTVKTKLRRGLIEARKLAREF | -1.28
HMIDTPQELARLLRLLDEQNFEAEILFHKLRPDLLHLWSKEHVTRIAEALDAFDYQMALTLLNASP | -2.43
HMIDVNLVQRGKTLHLRRRVPMRYSSVERREYVSISLKTDSEAEARRKAGAAWDQMIAAWEARLA | -0.382
HMIDYTDTSAVKDSAAVAGRVREMINEGVPIADVNAFIRSASENGLISDDSARRLRYMNDSR | -0.0436
HMIEDMTINIEERLSLNGDIKKSEYILQYIKPDFIRKVILSPELNKGEIYIYDSKKKVMYLPLFDQVSEEI | -0.355
HMIEINNLEDLKLMKEFILKNGKYGFGVFVGGKYIGLSDIGSVNSFKDTLGLPVVSLGNDDFKRFTEAH | -1.07
HMIEQEQAFLEQVLKKYSQEELVLTVGSRTLVKYSAGQLERLLEHYPHVRLASSPVNGEAGFLLSRG | -0.0614
HMIEQIELEARVPDELGGQRLDQVAAQMFDDFSRSRLTGWIRDGSLTADGQQLRPRDIVYGGTLLQLKAEQ | 0.132
HMIESFQNGLVEHDQFTRPNPWVTPNFSKIEVPSILLSGKHADIDLWKHQNSIENTKKNRPDLFKNYLKKN | -0.149
